Source: publication PMC8989981, “Negative feedback of SNRK to circ-SNRK regulates cardiac function post-myocardial infarction” (Cell Death and Differentiation, 2021)

Target: the molecule itself
Assay: native gel or EMSA; Native-PAGE of total protein from NRCMs, blotted with anti-NOVA1

B1: NOVA1 (NOVA alternative splicing regulator 1) (natural protein, rat (endogenous in NRCMs), UniProt Q80WA4 1-474, looked up)
chain: MAAAPIQQNGTHTGVPIDLDPPDSRKRPLEAPPEAGSTKRTNTGEDGQYFLKVLIPSYAAGSIIGKGGQTIVQLQKETGATIKLSKSKDFYPGTTERVCLIQGTIEALNAVHGFIAEKIREMPQNVAKTEPVSILQPQTTVNPDRIKQVKIIVPNSTAGLIIGKGGATVKAIMEQSGAWVQLSQKPDGINLQERVVTVSGEPEQNRKAVELIIQKIQEDPQSGSCLNISYANVTGPVANSNPTGFPYANTAEVLPTAAAAAGLLGHANLAGVAAFPAVLSGFTGNDLVAITSALNTLASYGYNLNTLGLGLSQAAATGALAAAAASANPAAAAANLLATYASEASASGSTAGGTAGTFALGSLAAATAATNGYFGAASPLAASAILGTEKSTDGSKDVVEIAVPENLVGAILGKGGKTLVEYQELTGARIQISKKGEFVPGTRNRKVTITGTPAATQAAQYLITQRITYEQGVR
notes: NOVA1 (NOVA alternative splicing regulator 1), rat, as present in neonatal rat cardiomyocytes; also called protein NOVA1; source: endogenous, NRCMs (neonatal rat cardiomyocytes), in lysate / total protein
Q: With B1 as the protein, how does the “stoichiometry N” value read?
A: The value was 2.
